For the test, the target named is SHIVC109P7 gp140 protein (soluble Env) (HIV-1 subtype C (Env of SHIVC109P7)). Put plainly: native gel or EMSA.

Consider “SHIVC109P7 gp140 protein (soluble Env) (domain or fragment)”, for which the stoichiometry N (in general, a count of units in the complex or per binding partner) turned out to be 3.

Values taken from article PMC11861162.
